Where two headings read alike, the source gives them in different places.
Key:
Synechocystis PCC6803 = experiment: Toxicity assay for erythritol: resistance of Synechocystis PCC6803, growth rate; format: cell-based; conditions: BG-11, pH 8.0, low light ~40 μE, 30° C.
Protocol: FIG. 4. Toxicity assay for erythritol. Synechocystis PCC6803 was inoculated in 10 ml BG-11 supplemented with 10 mM TES-buffer-NaOH (pH=8.0) and with 10 μg/ml kanamycine at an OD of 0.2. The culture was incubated at low light intensity (˜40 μE), 30° C. and shaking at 120 rpm. It was clearly shown (FIG. 4) that up to a concentration of 10 gr/L erythritol, cultures are not affected with respect to growth-rate.

[1] = substrate D-erythrose; cited from earlier work
[2] = substrate D-erythrose-4-P; cited from earlier work
[3] = co-factor NADPH; cited from earlier work

With `OC[C@@H](O)[C@@H](O)CO` [erythritol] the “erythritol concentration up to which cultures are not affected with respect to growth-rate” value (Synechocystis PCC6803) was no more than 10 gr/L.

B1: Gcy1p: erythrose reductase from Saccharomyces cerevisiae, SEQ ID NO: 7, 8 (protein, listed as Saccharomyces cerevisiae)
chain: MPATLHDSTKILSLNTGAQIPQIGLGTWQSKENDAYKAVLTALKDGYRHIDTAAIYRNEDQVGQAIKDSGVPREEIFVTTKLWCTQHHEPEVALDQSLKRLGLDYVDLYLMHWPARLDPAYIKNEDILSVPTKKDGSRAVDITNWNFIKTWELMQELPKTGKTKAVGVSNFSINNLKDLLASQGNKLTPAANQVEIHPLLPQDELINFCKSKGIVVEAYSPLGSTDAPLLKEPVILEIAKKNNVQPGHVVISWHVQRGYVVLPKSVNPDRIKTNRKIFTLSTEDFEAINNISKEKGEKRVVHPNWSPFEVFK
In the case of B1, the Km [1] is given as 3400 µM.

B2: TM1254: phosphatase from Thermotoga maritima MSB8, SEQ ID NO: 5, 6 (protein, listed as Thermotoga maritima)
chain: MEAVIFDMDGVLMDTEPLYFEAYRRVAESYGKPYTEDLHRRIMGVPEREGLPILMEALEIKDSLENFKKRVHEEKKRVFSELLKENPGVREALEFVKSKRIKLALATSTPQREALERLRRLDLEKYFDVMVFGDQVKNGKPDPEIYLLVLERLNVVPEKVVVFEDSKSGVEAAKSAGIERIYGVVHSLNDGKALLEAGAVALVKPEEILNVLKEVL
In the case of B2, the “D-erythrose-4-P Vmax” value [2] is listed as 2.63 umol/min/mg protein and the Km [2] is listed as 152 µM.

B3: YidA: phosphatase from Escherichia coli, SEQ ID NO: 1, 2 (protein, listed as Escherichia coli)
chain: MAIKLIAIDMDGTLLLPDHTISPAVKNAIAAARARGVNVVLTTGRPYAGVHNYLKELHMEQPGDYCITYNGALVQKAADGSTVAQTALSYDDYRFLEKLSREVGSHFHALDRTTLYTANRDISYYTVHESFVATIPLVFCEAEKMDPNTQFLKVMMIDEPAILDQAIARIPQEVKEKYTVLKSAPYFLEILDKRVNKGTGVKSLADVLGIKPEEIMAIGDQENDIAMIEYAGVGVAMDNAIPSVKEVANFVTKSNLEDGVAFAIEKYVLN
For B3, the “D-erythrose-4-P Kcat” value [2] is listed as 19 s⁻¹ and the Km [2] is listed as 19 µM.

B4: ErCm: reductase from Candida magnolia JH110, SEQ ID NO: 9, 10 (protein, listed as Candida magnoliae)
chain: MSSTYTLTRLSAPSMVLNSGSQIPAVGYGLWKQQGSEAKDSVRCAIESGYRHLDCATAYQNHKEVGQAIREAGVPRDELWITSKVWGTHFDNPEEGLDDILEELGVEYLDLLLLHLPVAFKRNPEDPKQLRGLPVDHDMKYADVWARMEKLPKSKVRNIGVSNLTVRALDELLQTAKVTPAVNQVEMHPNLPQKKLLDYCKSKGIVVQAYSPLAQGQHENPVVTDIADDLGVSPAQVVLSWGALRGTNILPKSSTPSRIRENLELIQLSDDHMRRIDALARR
For B4, the Km [3] is given as 16 µM, the “NADPH Kcat” value [3] is given as 48 s⁻¹ and the “D-erythrose Kcat” value [1] is given as 7.6 s⁻¹. The Km [1] was 8500 µM.

B5: GLD1: reductase from Hypocrea jecorina (Trichoderma reesei), SEQ ID NO: 11, 12 (protein, listed as Hypocrea jecorina)
chain: MSSGRTVTLNTGYKIPQIGYGTWQAAPGEVGAGVFEALKVGYRHLDLAKVYGNQKEVGEGIKKALAEVPGLKREDIFITSKLWNNSHKPEDVEPALDDTLAELGLDYLDLYLIHWPVAFAPGADLFPKSEDGSEVQLNQNVSIVQTWKAMTELPKSKVRSVGVSNFTIEHLDAVIEATGVVPAVNQIERHPRLPNQPLIDYCAKKGIIITAYSAFGNNTKGLPLLVSSDEVKAVADNLSKKQGKTVTPAQVILAWSQIGGHTVIPKSVTKARIAENFQEVELDDEAIAALNKLGEKPQRFNIPYTYKPRWNINLFNTEEEKAAAHTAVIKL
For B5, the Km [1] is listed as 16 to 134 µM.

B6: ALR1: reductase from Aspergillus niger, SEQ ID NO: 13, 14 (protein)
chain: MSLGKKVTLNSGAQIPQLGFGTWQSAPGQVGDAVYEALKAGYRHLDLATIYQNQREVAEGIKRAYKDVPGLKREDIFITSKLWNSQHDPAVVEKALDECLAELELDYLDLYLVHWPVSFTTGSELFPLVKDSSVEGGDVVINDDISIVDTWKAMTQLPKSKARTVGVSNHMIPHLEAIINATGVVPAVNQIERHPVLQSNELIEYCQKKGIHVTAYSAFGNNGFGVPLLVTRPEVKEVAESASKRLGTTVTPAQVILAWSQVGGHSVIPKSVTPSRIHENFKEVELTPEEIAKVSELGKDRRRYNTPYVANTPRWDIDIFGEEEEKPAGHKVIV
modifications: Aspergillus niger
For B6, the “D-erythrose Kcat” value [1] is given as 25 s⁻¹ and the Km [1] is given as 139 µM.
